Test results reported in patent US20190269788A1.

Legend:
[1] = target: soluble recombinant human IGF1R hetero-tetramere with C-terminal 10-His tag (R&D Systems catalogue number 305-GR-50) (human) (UniProt P08069); test: SPR Biacore X100, Ln(2)/koff
[2] = target: soluble recombinant human IGF1R hetero-tetramere with C-terminal 10-His tag (R&D Systems catalogue number 305-GR-50) (human) (UniProt P08069); test: SPR Biacore X100, His-captured h-IGF1R around 600 RU, mean of four experiments

half-life of the complex [1]: 2 to 3 h | Kd [2]: 0.06 nM
B1: hz208F2 VH3/VL3 (antibody, human IgG1, kappa, V domains shown)
VH: QVQLVQSGAEVKKPGASVKMSCKASGYTFTSYYIYWVKQAPGQGLEWLGWIWPGDGSTKYNEKFQGRVTLTADKSSNTAYMFLSSLRSEDTAVYFCASPMITPNYAMDYWGQGTLVTVSS
VL: DIQMTQSPSSLSASVGDRVTISCRASQDISKYLNWYQQKPGKAPKLLIYYTSRLHSGVPSRFSGRGSGTDYSLTISNLQPEDFATYFCQQGSTLPYTFGGGTKVEIKR
